Laboratory results as given in paper PMC5925078 (2018).

Key:
[1] = molecular target: T1, TNFR2 variant in which the intracellular binding site for TRAF2 has been substituted by YFP (UniProt P20333 23-461); assay: cells, second transfection empty vector
T1 chain: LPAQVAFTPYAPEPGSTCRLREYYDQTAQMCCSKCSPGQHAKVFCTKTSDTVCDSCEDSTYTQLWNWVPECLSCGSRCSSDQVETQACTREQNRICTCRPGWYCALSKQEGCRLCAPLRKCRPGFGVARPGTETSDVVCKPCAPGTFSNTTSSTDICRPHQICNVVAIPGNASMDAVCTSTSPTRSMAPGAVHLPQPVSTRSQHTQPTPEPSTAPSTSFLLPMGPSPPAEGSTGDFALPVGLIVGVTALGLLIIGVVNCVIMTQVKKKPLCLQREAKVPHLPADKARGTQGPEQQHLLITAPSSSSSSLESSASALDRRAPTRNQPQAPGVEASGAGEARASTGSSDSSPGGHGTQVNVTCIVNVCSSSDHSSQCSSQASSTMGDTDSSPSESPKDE

[2] = molecular target: T1, TNFR2 variant in which the …; assay: cells co-expressing PGRN

Kd [1]: 0.036 nM
Kd [2]: 0.049 nM
B1: GpL-Flag-TNC-TNF (ligand)
chain: ACGCAAAPDIKDLLSRLEELEGLVSSLREQSDKPVAHVVANPQAEGQLQWLNRRANALLANGVELRDNQLVVPSEGLYLIYSQVLFKGQGCPSTHVLLTHTISRIAVSYQTKVNLLSAIKSPCQRETPEGAEAKPWYEPIYLGGVFQLEKGDRLSAEINRPDYLDFAESGQVYFGIIAL
